Bounds are passed on as bounds.

From patent CN114874330A come the findings set out here.

For assay [1], the target named is CT103A scFv. Kind of assay: competition ELISA, antibody at 1000 ng/ml pre-incubated with biotin-CT103A scFv; competitor: coated BCMA. On the technique in general: ELISA stands for enzyme-linked immunosorbent assay.
In assay [2] the target is BCMA-CAR (CAR with the CT103A scFv) on cells. Kind of assay: flow cytometry, AF647-labelled antibody on BCMA-CAR-Jurkat cells; first series, 2-fold dilution step 2 of 10. Also noted: scale not given here. In general terms: A flow cytometer gives signals particle by particle.
Sequence of BCMA-CAR (CAR with the CT103A scFv) on cells (chain, as listed by the source): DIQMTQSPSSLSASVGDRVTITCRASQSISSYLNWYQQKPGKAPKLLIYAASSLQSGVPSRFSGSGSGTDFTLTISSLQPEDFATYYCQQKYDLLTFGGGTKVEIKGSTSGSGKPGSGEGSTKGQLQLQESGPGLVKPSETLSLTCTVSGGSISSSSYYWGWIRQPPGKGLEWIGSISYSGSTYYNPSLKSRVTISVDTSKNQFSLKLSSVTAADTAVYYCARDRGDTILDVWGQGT
The target is the same in assay [3]. Description: flow cytometry, AF647-labelled antibody on BCMA-CAR-Jurkat cells; first series, 2-fold dilution step 7 of 10. Also on record: scale not given here.
Assay [4] shares this target. Kind of assay: flow cytometry, AF647-labelled antibody on BCMA-CAR-Jurkat cells; first series, 2-fold dilution step 4 of 10. Also noted: scale not given here.
Assay [5] shares this target. Description: flow cytometry, AF647-labelled antibody on BCMA-CAR-Jurkat cells; SECOND series, also printed as 12F1 (possibly 6G8), 2-fold dilution step 1 of 10 (highest). Also noted: scale not given here.
Assay [6] has the same target. Kind of assay: flow cytometry, AF647-labelled antibody on BCMA-CAR-Jurkat cells; first series, 2-fold dilution step 8 of 10. Also noted: scale not given here.
Assay [7] has the same target. Description: flow cytometry, AF647-labelled antibody on BCMA-CAR-Jurkat cells; SECOND series, also printed as 12F1 (possibly 6G8), step 10 of 10 (lowest). Also noted: scale not given here.
For assay [8] the target is unchanged. Description: flow cytometry, AF647-labelled antibody on BCMA-CAR-Jurkat cells; SECOND series, also printed as 12F1 (possibly 6G8), step 2 of 10. Also noted: scale not given here.
For assay [9] the target is unchanged. Kind of assay: flow cytometry, AF647-labelled antibody on BCMA-CAR-Jurkat cells; first series, 2-fold dilution step 1 of 10 (highest); negative control MFI 0.18. Also noted: scale not given here.
For assay [10] the target is unchanged. Description: flow cytometry, AF647-labelled antibody on BCMA-CAR-Jurkat cells; SECOND series, also printed as 12F1 (possibly 6G8), step 5 of 10. Also on record: scale not given here.
Assay [11] shares this target. Description: flow cytometry, AF647-labelled antibody on BCMA-CAR-Jurkat cells; SECOND series, also printed as 12F1 (possibly 6G8), step 4 of 10. Also on record: scale not given here.
Assay [12] shares this target. Description: flow cytometry, AF647-labelled antibody on BCMA-CAR-Jurkat cells; first series, 2-fold dilution step 6 of 10. Also noted: scale not given here.
The target is the same in assay [13]. Kind of assay: flow cytometry, AF647-labelled antibody on BCMA-CAR-Jurkat cells; first series, 2-fold dilution step 3 of 10. Also on record: scale not given here.
Assay [14] shares this target. Description: flow cytometry, AF647-labelled antibody on BCMA-CAR-Jurkat cells; SECOND series, also printed as 12F1 (possibly 6G8), step 9 of 10. Also on record: scale not given here.
For assay [15] the target is unchanged. Kind of assay: flow cytometry, AF647-labelled antibody on BCMA-CAR-Jurkat cells; SECOND series, also printed as 12F1 (possibly 6G8), step 7 of 10. Also on record: scale not given here.
For assay [16] the target is unchanged. Description: flow cytometry, AF647-labelled antibody on BCMA-CAR-Jurkat cells; first series, 2-fold dilution step 9 of 10. Also noted: scale not given here.
Assay [17] deals with CT103A scFv. Description: competition ELISA, antibody at 500 ng/ml pre-incubated with biotin-CT103A scFv; competitor: coated BCMA.
Assay [18] concerns the target BCMA-CAR (CAR with the CT103A scFv) on cells. Description: flow cytometry, AF647-labelled antibody on BCMA-CAR-Jurkat cells; first series, 2-fold dilution step 10 of 10 (lowest). Also on record: scale not given here.
For assay [19] the target is unchanged. Description: flow cytometry, AF647-labelled antibody on BCMA-CAR-Jurkat cells; SECOND series, also printed as 12F1 (possibly 6G8), step 6 of 10. Also noted: scale not given here.
Assay [20] has the same target. Description: flow cytometry, AF647-labelled antibody on BCMA-CAR-Jurkat cells; SECOND series, also printed as 12F1 (possibly 6G8), step 8 of 10. Also noted: scale not given here.
Assay [21] shares this target. Kind of assay: flow cytometry, AF647-labelled antibody on BCMA-CAR-Jurkat cells; SECOND series, also printed as 12F1 (possibly 6G8), step 3 of 10. Also noted: scale not given here.
Assay [22] shares this target. Description: flow cytometry, AF647-labelled antibody on BCMA-CAR-Jurkat cells; first series, 2-fold dilution step 5 of 10. Also noted: scale not given here.

Sequence of CT103A scFv (scFv, as listed by the source): as the sequence (chain, as listed by the source) above

B1: 12F1 (antibody, V domains shown)
VH: QSLEESGGRLVTPGTPLTLTCTVSGFSLNSNAMGWVRQAPGKGLEYIGFIAAYGDTHNATWAKGRFTISKTSTTVDLKITSPTTEDTATYFCASTYGGDGGWYFNIWGPGTLVTVSE
VL: AFELTQTPSSVEAAVGGTVIIKCQASQNIVRYLSWYQQKPGQPPKLLIYEASNLASGVPSRFSGSGSGTEFTLTISDLECADAATYYCQSYYDAESFNTFGGGTEVVVKG
As to B1, the 信号抑制率 in assay [1] and in assay [17] was > 90% in each case. The MFI in assay [2] is 15.3; in assay [3], 4.37; in assay [4], 14.3; in [5] it was 4.66; in [6], 2.83; in assay [7], 0.22. For the same molecule, the MFI came out at 3.16 in [8]; 15.3 in [9]; 0.81 in [10]; 1.28 in assay [11]; 7.73 in assay [12]; 15.3 in [13]. In addition, the MFI in assay [14] was 0.25; in assay [15], 0.37; in assay [16] it was 1.53; in [18], 0.94; in assay [19], 0.53; in assay [20], 0.31. Moreover, the MFI in assay [21] is 1.98; in assay [22], 12.4.
